From the RNAGym collection of RNA variant scans (doi:10.1073/pnas.2313332121)
Variants at the floor of the assay were thinned out.

B1: TPR 5TU (parent)
chain: GGAUCUUCUCGAUCUAACAAAAAAGACAAAUCUGCCACAAAGCUUGAGAGCAUCUUCGGAUGCAGAGGCGGCAGCCUUCGGUGGCGCGAUAGCGCCAACGUUCUCAACUAUGACACGCAAAACGCGUGCUCCGUUGAAUGGAGUUUAUCAUG

Variants of: B1
Experiment: polymerase ribozyme fitness, log enrichment relative to wild type (log ratio); higher = more active; in vitro selection for triplet polymerase activity
Summary of the method: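 Streptavidin-bead capture of gel-excised extended constructs, followed by RT-PCR, closed a single triplicate in vitro selection round. That round began by annealing PCR-built, transcribed mutant libraries of each subunit of a heterodimeric triplet polymerase ribozyme with a biotinylated primer, the partner subunit and triplets, then incubating them frozen at −7 °C. After Illumina sequencing of inputs and outputs, genotypes needed ≥10 input reads and ≥1 read per output. Fitness is the base-2 logarithm of genotype enrichment over wild-type enrichment, using inverse-variance-weighted replicate averages.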

Compared with G50C U134C, G50C U61A G62U A142C is lower in “polymerase ribozyme fitness (log ratio)” value: -2.51 for the first, -2.79 for the second.

G50C C76U and G50A C95U C116U are within 0.2 log units of each other in “polymerase ribozyme fitness (log ratio)” value: -1.88 for the first, -1.99 for the second.

Going from G50A C96G to G50A C96A, the “polymerase ribozyme fitness (log ratio)” value falls from -1.55 to -2.68.

Going from G50A C96U to G50A A142C, the “polymerase ribozyme fitness (log ratio)” value falls from -1.47 to -3.12.

G50A C51U U55A G84A C87A C93A C108U G140C U146C and A49G U55G C57U A60G C75G C76U U90A U102C U134G G140C cannot be ordered by “polymerase ribozyme fitness (log ratio)” value: no more than -4.2 for the first, no more than -4.2 for the second.

Going from A49U G50C G65C A97U U101G C129G G143U to G50A C76U C96A A121G, the “polymerase ribozyme fitness (log ratio)” value rises from no more than -4.2 to -1.1.

Compared with G50U A60U, G50A A107U is lower in “polymerase ribozyme fitness (log ratio)” value: -0.536 for the first, -4.13 for the second.

Compared with G50C C75U C93G A115G, G50A U78G is higher in “polymerase ribozyme fitness (log ratio)” value: no more than -4.2 for the first, -4.06 for the second.

Going from G50A G65A C85U to A49U A119C U127A U134A, the “polymerase ribozyme fitness (log ratio)” value falls from -3.49 to no more than -4.2.

Going from G50C U56A to G50C A64G A89C G94C U101G A106U G133U, the “polymerase ribozyme fitness (log ratio)” value falls from -2.92 to -4.12.

First: G50A C57U G74U C75G C87A A97C A150G
Second: G50C C125U
The “polymerase ribozyme fitness (log ratio)” value of the first is lower: no more than -4.2 for the first, -3.89 for the second.

Going from G50C C125A to G50C G67A U90G A142G, the “polymerase ribozyme fitness (log ratio)” value falls from -2.76 to no more than -4.2.

Going from A49G G92U to G50U A52G, the “polymerase ribozyme fitness (log ratio)” value falls from 0.21 to -0.0259.

First: A49U A60C
Second: G50A U145C
The “polymerase ribozyme fitness (log ratio)” value of the first is lower: -3.47 for the first, -0.761 for the second.

G50A G94C C95G U144C and G50A C51U G74C U82C G140A U146G cannot be ordered by “polymerase ribozyme fitness (log ratio)” value: no more than -4.2 for the first, no more than -4.2 for the second.

Going from G50U G67U C85G C103U G140A A147G to A49G G140A, the “polymerase ribozyme fitness (log ratio)” value rises from no more than -4.2 to -3.77.

First: A49G G140C
Second: G50A A89U C99U
The “polymerase ribozyme fitness (log ratio)” value of the first is lower: -3.88 for the first, -2.94 for the second.

Going from A49U U82G to G50U C95U C118A G140A, the “polymerase ribozyme fitness (log ratio)” value falls from -0.129 to no more than -4.2.

G50C U61A A110U U145G and G50C A64C U82G C87G A106U A122C cannot be ordered by “polymerase ribozyme fitness (log ratio)” value: no more than -4.2 for the first, no more than -4.2 for the second.

Compared with G50U C87U G92A, G50A A52C G84U A122U G141U is lower in “polymerase ribozyme fitness (log ratio)” value: 0.244 for the first, -3.68 for the second.

Going from G50A C85G C93A C129G to G50C C118A, the “polymerase ribozyme fitness (log ratio)” value rises from no more than -4.2 to -4.05.

First: G50C C118U
Second: G50C U55G C63A C76G A91G C125G U145C
The “polymerase ribozyme fitness (log ratio)” value of the first is higher: -3.01 for the first, no more than -4.2 for the second.

First: G50C C129U
Second: G50C C63G C96A C118U A119C
The “polymerase ribozyme fitness (log ratio)” value of the first is lower: -3.94 for the first, -0.626 for the second.

First: G50C G59A
Second: G50C C51U G92U
The “polymerase ribozyme fitness (log ratio)” value of the first is lower: -3.03 for the first, -2.09 for the second.

Compared with G50A A91U C99U C103G C108U A137C G141C, A49U C54U is higher in “polymerase ribozyme fitness (log ratio)” value: no more than -4.2 for the first, -1.34 for the second.

Compared with G50A A91U G100U C125A, G50U G81A C95U is higher in “polymerase ribozyme fitness (log ratio)” value: no more than -4.2 for the first, 0.505 for the second.

First: G50U C87U C96A
Second: G50A C75U C76U C114G G152U
The “polymerase ribozyme fitness (log ratio)” value of the first is higher: -1.48 for the first, -4.02 for the second.

G50U C95A U109C and G50C C118G G140A cannot be ordered by “polymerase ribozyme fitness (log ratio)” value: no more than -4.2 for the first, no more than -4.2 for the second.

Going from G50C C69A C75U to G50A C87U, the “polymerase ribozyme fitness (log ratio)” value rises from no more than -4.2 to -1.74.

Going from G50A U134A to G50U C93U, the “polymerase ribozyme fitness (log ratio)” value rises from -3.21 to -2.05.

Going from G50C A52C U55A G86A to A49U A73G G81C C85U, the “polymerase ribozyme fitness (log ratio)” value rises from -3.95 to -2.64.

First: A49U A73U C75A
Second: G50U C87U G136U
The “polymerase ribozyme fitness (log ratio)” value of the first is lower: no more than -4.2 for the first, -2.29 for the second.

Compared with G50C C96U U134A, G50U A60C G84A is higher in “polymerase ribozyme fitness (log ratio)” value: no more than -4.2 for the first, -2.47 for the second.

First: G50C C75U C85G
Second: A49G U56G G83C
The “polymerase ribozyme fitness (log ratio)” value of the first is lower: no more than -4.2 for the first, -2.85 for the second.

Compared with G50U, G50C is lower in “polymerase ribozyme fitness (log ratio)” value: 0.257 for the first, -2.52 for the second.

Compared with G50A, G50U C54G A150U is lower in “polymerase ribozyme fitness (log ratio)” value: -1.02 for the first, -2.15 for the second.

First: A49U A97U A106G C116U
Second: A49U C69G C75A U90G
The “polymerase ribozyme fitness (log ratio)” value of the first is higher: -2.93 for the first, no more than -4.2 for the second.

Going from G50A C96U G141U to G50A C51U U55A C76A C105U C108G, the “polymerase ribozyme fitness (log ratio)” value falls from -0.125 to no more than -4.2.

Going from G50C A64U C93G U111G C116U G143U to A49G U55A A73G, the “polymerase ribozyme fitness (log ratio)” value rises from no more than -4.2 to -3.1.

Going from G50C C51A to G50A C69U A121U A137C, the “polymerase ribozyme fitness (log ratio)” value falls from -0.896 to no more than -4.2.

Compared with G50A C54U C57A G84U C103G G124C G133U G141C, G50A G59A C96U A122U A142G A147U is higher in “polymerase ribozyme fitness (log ratio)” value: no more than -4.2 for the first, -3.67 for the second.

For G50A U53A A91U G124A C131G A137C, the “polymerase ribozyme fitness (log ratio)” value was no more than -4.2.
